16 sequences from the nanobody polyreactivity screen of Harvey et al. (2022) can be followed below.

A short description of this series: yeast display, Sf9 membrane polyspecificity reagent, FACS + sequencing; frameworks hold sequencing errors. The method in brief:
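Galactose-induced (36–48 hours) yeast carrying a synthetic nanobody display library were exposed to 10% biotinylated, detergent-solubilized Sf9 membrane reagent at 4 °C for 1 hour. FACS followed streptavidin microbead enrichment, using low and high (top ~1%) gates for expression (anti-HA) and reagent binding (streptavidin). Colony PCR, MiSeq 2 × 250 sequencing and CDR-length filtering followed. Labels for polyreactivity reflect the gate of origin.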
Turning to “QVQLVESGGGLVQAGGSLRLSCAASGSTFGANAMGWYRQAPGKEREFVAAISRSGVRTYYADSVKGRFTISRDNAKNTVYLQMNSLKPEDTAVYYCAADGYWWTYKGQYDYWGQGTQVTVSS”, the “polyreactivity (PSR sort gate)” value was “low polyreactivity”.
As for “QVQLVESGGGLVQAGGSLRLSCAASGITFGHYAMGWYRQAPGKERQLVAGINWSGDGRYYADSVKGRFTISRDNAKNTVYLQMNSLKPEDTAVYYCDAETFYDYGGYDYWGQGTQVTVSS”, the “polyreactivity (PSR sort gate)” value is listed as “low polyreactivity”.
Regarding “QVQLVESGGGLVQAGGSLRLSCAASGSIFLGNSMGWYRQAPGKERELVAAISSITGRTYYADSVKGRFTISRDNAKNTVYLQMNSLKPEDTAVYYCNKVKRSFIVNTDDYWGQGTQVTVSS”, the “polyreactivity (PSR sort gate)” value was “high polyreactivity”.
In the case of “QVQLVESGGGLVQAGGSLRLSCAASGGIFDINAMGWYRQAPGKERELVAAITQSGGSTYYADSVKGRFTISRDNAKKTVYLQMNSLKPEDTAVYYCAKAVWYQGFDYWGQGTQVTVSS”, the “polyreactivity (PSR sort gate)” value is reported as “high polyreactivity”.
As for “QVQLVESGGGLVQAGGSLRLSCAASGIIFVSYAMGWYRQAPGKERELVAAITRRGSRTYYADSVKGRFTISRDNAKNTVYLQMNSLKPEDTAVYYCAADSQAARYHAYDYWGQGTQVTVSS”, the “polyreactivity (PSR sort gate)” value was “high polyreactivity”.
As for “QVQLVESGGGLVQAGGSLRLSCAASGYTFHGYAMGWYRQAPGKESELVAVITQRGGSTSYADSVKGRFTISRDNAKITVYLQMNSLKPEDTAVYYCNASAWLVVARTRYGYWGQGTQVTVSS”, the “polyreactivity (PSR sort gate)” value was “low polyreactivity”.
The entry for “QVQLKESGGGLVQSGGSLRLSCAASGNIVDADIMGWYRQAPGKERELVASITDGGSTNYADSVKGRFTISRDNAKNTVYLQMNSLKPEDTAVYYCAAIAYPDIPTYFDYDSEYFYWGQGTQVTVSS” is “low polyreactivity”.
The value for “QVQLVESGGGLVQAGGSLRLSCAASGRIFYGNAMGWYRQAPGKERELVAAITRSGSSTYYADSVKGRFTISRDNAKNTVYLQMNSLKPEVTAVYYCAVKYFDYVGQYAYYYWGQGTQVTVSS” was “high polyreactivity”; that for “QVQLVESGGGLVQEGGSLRLSCAASGSTFDIYAMGWYRQAPGKERELVAAIRGRGGSTYYADSVKGRFTISRDNGKNTVYLQMNSLKPEDTAVYYCAADSYATRYYYWGQGTQVTVSS” was “high polyreactivity”; that for “QVQLVESGGGLVQAGGSLRLSCAASGRIFTIYAMGWYRQAPGKERELVAAITRGGNTNYADSVKGRFTISRDNAKNTVYLQMNSLKPEDTAVYDGAVGSRSWPYDYWGQGSQVTVSS” was “high polyreactivity”.
The value for “QVQLVESGGGLVQAGGSLRLSCASSGRIFGGYAMGWYRQAPGTELELVAAISSGGSTYYADSVKGRFTISRDNAKNTVYLQMNSLKPEDTAVYYCYAYYPWRWGSYPFDYWGQGTQVTVSS” was “high polyreactivity”; that for “QVQLVESGGGIVQAGGSLRLSCAASGSTIGYYAMGWSRQAPGKERELVAAISRRGGSTYYADSVKGRFTISRDNAKNTVYLQMTSLKPEDTAVYYCAADRRIGDGENYYWGQGTQVTVSS” was “high polyreactivity”; that for “QVQLVESGGGLVQAGGSLRLSCAASGRTFKYNAMGWYRQAPGKERELVAVIRYSGGTTYYADSVKGRFTISRDNAKNTVYLQMNSLKPEDTAVYYCNADGPYVLPGWYFRTDNSWGQGTQVTVSS” was “low polyreactivity”.
Regarding “QVQLVESGGGLVQAGGSLRLSCAASGIIFPYYSMGWYRQAPGKERELVAAITSSGGSTYYADSVKGRFTISRDNAKNTVYLQMNSLKPEDTAVYYCAAQTWGHGGDSWGQGTQVTVSS”, the “polyreactivity (PSR sort gate)” value was “high polyreactivity”.
Consider “QVQLVESGGGLVQAGGSLRLSCSASGSIFAIYTMGWYRQAPGTERELVAAISSRGDSTYYADSVKGRFTISRDNAKNTVYLQMNSLKPEDTAVYYCATRGDGVLGRRGYYWGQGTQVTVSS”, for which the “polyreactivity (PSR sort gate)” value is “high polyreactivity”.
The entry for “QVQLVESGGGLVQAGGSLRLTCAASGFIFYSYAMGWYRQAPGKERELVAAISTSGGSTYYADSVKGRFTISRDNAKNTVYLQMNSLKPEDTAVYYCAVGRKFGRYRVPFVVPYEYWGQGTQVTVSS” is “high polyreactivity”.
